Patent publication US20160257958

Tests used:
[1] = molecular target: T1, human hepcidin-25 (L-peptide) (Homo sapiens) (UniProt P81172); assay: SPR; details: L-RNA, 37 C
T1 sequence: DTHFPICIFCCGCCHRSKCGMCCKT

[2] = molecular target: T2, biotinylated human D-hepcidin-25 (mirror-image peptide) (Homo sapiens) (UniProt P81172); assay: SPR; details: 37 C, 1 mM Mg, 1 mM Ca
T2 sequence: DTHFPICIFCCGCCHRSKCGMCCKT

[3] = 5'-40 kDa PEG, 1 mM Mg, 1 mM Ca

Sequence | Kd ([1]; 1 mM Mg, 1 mM Ca) [nM] | Kd [1, 3] [nM] | also measured
AGCGUGUCGUAUGGGAUUAAGUAAAUGAGGAGUUGGAGGAAGGGCAUGCU [238-D4-001 (L-RNA)] | 0.51 |  | 
AGGCUCGGACAGCCGGGGGACACCAUAUACAGACUACGAUACGGGCCU [238-C4-001 (L-RNA)] | 0.9 |  | 
CGUGUGUAAAGUAGAGGACAAUUGUCGGCGUGAUAGUGCCACACG [229-B1-001 (D-RNA)] |  |  | Kd [2]: 0.5 nM
CGUGUGUAAAGUAGAGGACAAUUGUCGGCGUGAUAGUGCCACACG [229-B1-001 (L-RNA)] |  |  | Kd ([1]; data not shown): 1.25 nM
GCACUCGUAAAGUAGAGGGACCCAGUCCGGCGUGAUAGUGCCGAGUGC [223-C5-001 (D-RNA)] |  |  | Kd [2]: 1.2 nM
GCACUCGUAAAGUAGAGGGACCCAGUCCGGCGUGAUAGUGCCGAGUGC [223-C5-001 (L-RNA)] | 2.7 |  | 
GCACUCGUAAAGUAGAGGGACCCAGUCCGGCGUGAUAGUGCCGAGUGC [223-C5-001-5'-PEG] |  | 4.44 | 
GCGCCGUAUGGGAUUAAGUAAAUGAGGAGUUGGAGGAAGGGCGC [238-D4-008-5'-PEG (NOX-H94)] |  | 0.64 | 
GCGCGCGUAUGGGAUUAAGUAAAUGAGGAGUUGGAGGAAGGCGCGC [238-D4-002-5'-PEG] |  | 0.53 | 
GCUGUGUAAAGUAGAGGACAAUUGUCGGCGUGAUAGUGCCACAGC [229-B1-002 (L-RNA)] | 1.47 |  | 
GCUGUGUAAAGUAGAGGACAAUUGUCGGCGUGAUAGUGCCACAGC [229-B1-002-5'-PEG] |  | 1.92 | 
GGCCGGACAGCCGGGGGACACCAUAUACAGACUACGAUACGGCC [238-C4-006-5'-PEG] |  | 0.76 | 
